Measurements taken from article PMC2265480, “Identification of Synaptic Targets of Drosophila Pumilio”.

Experiments:
[1] = molecular target: T1, GST-Pum (Pumilio RNA-binding domain) (Drosophila, UniProt P25822 1091-1533); assay: EMSA; details: 5:1 protein:RNA, 10 mM Hepes/KOH pH 7.4, 50 mM KCl, 3 mM MgCl2, 1 mM EDTA, 2 mM DTT, 0.1 mg/ml BSA, 0.1 mg/ml yeast tRNA, 0.01% Tween-20, 0.2 U RNasin, 10% glycerol, 10 ul …
T1 sequence: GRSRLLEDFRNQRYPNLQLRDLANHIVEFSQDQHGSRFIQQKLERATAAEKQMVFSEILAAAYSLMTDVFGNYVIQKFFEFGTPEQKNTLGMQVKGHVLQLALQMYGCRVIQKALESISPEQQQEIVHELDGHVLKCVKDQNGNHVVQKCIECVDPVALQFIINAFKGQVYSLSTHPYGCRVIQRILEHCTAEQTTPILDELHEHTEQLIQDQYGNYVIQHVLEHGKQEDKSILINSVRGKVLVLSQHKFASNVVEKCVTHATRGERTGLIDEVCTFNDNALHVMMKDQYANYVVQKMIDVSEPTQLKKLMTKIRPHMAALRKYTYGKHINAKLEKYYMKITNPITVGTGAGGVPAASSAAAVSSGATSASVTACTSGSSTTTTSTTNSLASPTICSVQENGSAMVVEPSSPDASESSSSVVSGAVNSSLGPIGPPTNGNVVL

[2] = molecular target: T2, GST-Pum (Pumilio RNA-binding domain) (Drosophila) (UniProt P25822); assay: EMSA; details: 5:1 protein:RNA (50 fmol:10 fmol); one complex; 10 mM Hepes/KOH pH 7.4, 50 mM KCl, 3 mM MgCl2, 1 mM EDTA, 2 mM DTT, 0.1 mg/ml BSA, 0.1 mg/ml yeast tRNA, 0.01% Tween-20, 0.2 U RNasin, 10% glycerol, 10 ul …
T2 sequence: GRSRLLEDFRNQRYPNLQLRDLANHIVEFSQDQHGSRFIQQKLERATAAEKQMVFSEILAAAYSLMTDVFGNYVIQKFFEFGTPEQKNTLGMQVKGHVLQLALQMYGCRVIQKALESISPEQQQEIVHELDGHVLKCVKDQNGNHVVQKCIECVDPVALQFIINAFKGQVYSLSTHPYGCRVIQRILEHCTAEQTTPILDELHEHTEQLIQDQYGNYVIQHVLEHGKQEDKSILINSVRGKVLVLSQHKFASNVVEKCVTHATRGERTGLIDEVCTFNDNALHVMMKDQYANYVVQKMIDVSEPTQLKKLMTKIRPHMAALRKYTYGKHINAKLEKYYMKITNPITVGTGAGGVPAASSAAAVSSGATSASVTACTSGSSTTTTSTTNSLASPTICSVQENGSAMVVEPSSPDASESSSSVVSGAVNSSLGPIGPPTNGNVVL

[3] = molecular target: T1, GST-Pum (Pumilio RNA-binding domain); assay: EMSA; up to 50 fmol protein:10 fmol RNA; 10 mM Hepes/KOH pH 7.4, 50 mM KCl, 3 mM MgCl2, 1 mM EDTA, 2 mM DTT, 0.1 mg/ml BSA, 0.1 mg/ml yeast tRNA, 0.01% Tween-20, 0.2 U RNasin, 10% glycerol, 10 ul, 20 min room temperature; 5% native gel in 1x TBE; details: protein: recombinant; tags: N-terminal GST; label: radiolabel

## EP2237 3'UTR 340-514
[1]
  binding signal: 20.5 % bound

## mam 3'UTR 642-1110
[1]; 2 sites
  binding signal: 73.8 % bound

## AP-1gamma 3'UTR 85-191
[1]; one complex
  binding signal: 21.8 % bound

## Csp 3'UTR 1218-1545
[1]; 2 sites
  binding signal: 57.2 % bound

## shn 3'UTR 809-1013
[1]; 2 sites
  binding signal: 59 % bound

## Ace 3'UTR 722-1095
[1]
  binding signal: 33 % bound

## AUUAUUUUGUUGUCGAAAAUUGUACAUAAGCC [hb NRE2]
[2]
  binding signal: 67.9 % bound

## dlg1 (isoforms A and D) 3'UTR 1485-1539
[1]; one complex
  binding signal: 56.9 % bound

## Gad1 3'UTR 704-973
[1]; 2 sites
  binding signal: 35.9 % bound

## dlg1 isoform C 3'UTR 744-829
[1]; not bound even at high molar ratio
  binding signal: 0 % bound

## GGUAGUGCAUACAACUUCCUU (ssRNA) [CRS random control RNA]
[3]
  binding result: no binding
